Experimental data reported in US20240058465A1 (SUTRO BIOPHARMA, published 2024).

What was measured:
[1] = biological target: T1, human ROR1 (hROR1) (human, UniProt Q01973 30-937); experiment: flow cytometry, HCT116-hROR1 cells
T1 construct: On HCT116-hROR1 transfectants, Mino cells or Ntera-2 cells, as the assay of each row says; also called receptor tyrosine kinase like orphan receptor 1
Method: A mix of ROR1 positive and negative cells was prepared as follows. Ror1 negative cells were washed 2× in PBS then incubated in PBS containing 1 nM CellTrace™ Oregon Green488® (Life Technologies) at 37° C. for 30 minutes. Cells were then washed 2× with RPMI w/10% fetal calf serum (or FCS), washed 2× with FACS buffer (PBS+0.5% BSA), suspended thoroughly in ice-cold FACS buffer at a final concentration of 4×10^6 cells/ml and kept on ice. ROR1 positive cells were washed 2× in PBS and suspended with ice-cold FACS buffer at 4×10^6 cells/ml. ROR1 positive and negative cells were then mixed to obtain a 1-1 cell suspension and seeded at 50 μl per well on 96 well polypropylene plates. 50 μl of 6-12 point dilutions of anti-ROR1 variants starting from concentrations of ˜100-200 nM antibody was dispensed using BioMekFX (Beckman Coulter) into each well. Cells were then incubated on ice for 1 hr, washed with FACS buffer and incubated for 1 hr on ice with 50 μl FACS buffer containing 2.5 μg/ml Alexa647-conjugated Goat Anti-Human IgG dispensed using BioMekFX (Beckman Coulter). Cells were then washed 2× with FACS buffer and fixed for 10 minutes in 200 μl PBS with 2% PFA prior to fluorescence detection. Samples were acquired using a Beckton Dickinson LSRII FACS. Mean Fluorescence Intensity of ROR1 antibody binding was analyzed using FlowJo® software (Tree Star, Inc.).

[2] = biological target: T2, human ROR1 Frizzled domain (hROR1-Fz) (human, UniProt Q01973 165-305); experiment: SPR Biacore, IgG on anti-Fc, ROR1-Fz analyte
T2 construct: Acro Biosystems, made in HEK293
Method: Anti-Fc polyclonal antibodies were immobilized onto a CMS chip (GE Life Sciences) using amine coupling chemistry (from Amine Coupling Kit, GE Life Sciences). The immobilization steps were carried out at a flow rate of 25 μL/min in 1×HBS-EP+buffer (GE Life Sciences; 10× Stock diluted before use). The sensor surfaces were activated for 7 min with a mixture of NHS (0.05 M) and EDC (0.2 M). The Anti-Fc antibodies were injected over all 4 flow cells at a concentration of 25 ug/ml in 10 mM sodium acetate, pH 4.5, for 7 min. Ethanolamine (1 M, pH 8.5) was injected for 7 min to block any remaining activated groups.
Off-rate and kinetic binding experiments were performed at 25° C. using 1×HBS-EP+buffer. Test and control antibodies were injected over the anti-Fc surface at concentrations of 5-10 μg/mL for 12 seconds at a flow rate of 10 μL/min on flow cells 2, 3 and 4, followed by a buffer wash for 30 seconds at the same flow rate. […] After capturing ligand (antibody) on the anti-Fc surface, the analyte (hROR1, Fz or Kr domains, Acro Biosystems, Delaware) was bound for 180 seconds, followed by a 600 second dissociation phase at a flow rate of 50 μL/min. Between each ligand capture and analyte binding cycle, regeneration was carried out using 2 injections of 10 mM Glycine pH 2.0 for 30 seconds at 30 μL/min, followed by a 30 second buffer wash step.

| Binder | Bmax (MFI) [1] | Kd [1] | Kd [2] | koff [2] | kon [2] |
| --- | --- | --- | --- | --- | --- |
| SRP2194-A07 (antibody, IgG1, V domains shown, His/FLAG-tagged IgG1, cell-free) VH: EVQLVESGGGLVQPGGSLRLSCAASGFNFTDYYIHWVRQAPGKGLEWVGYISPLAGNTYHADSVKGRFTISADTSKNTAYLQMNSLRAEDTAVYYCARDSRRYVRPFDYWGQGTLVTVSS VL: not shown | 8770 MFI | 410 pM | 1610 pM | 0.000275 s⁻¹ | 171000 M⁻¹ s⁻¹ |
| SRP2196-A02 (antibody, V domains shown, His/FLAG-tagged IgG1) VH: EVQLVESGGGLVQPGGSLRLSCAASGFNITGYYIHWVRQAPGKGLEWVGQISPNSGATHDADSVKGRFTISADTSKNTAYLQMNSLRAEDTAVYYCARDSRRYVRGWDYWGQGTLVTVSS VL: QAVVTQESALTTSPGETVTLTCRSSTGAVTTSNYANWVQEKPDHLFTGLIGGTNKRAPGVPARFSGSLIGDKAALTITGAQTEDEAIYFCALWYSNLWVFGGGTKLTVL | 15200 MFI | 200 pM |  |  |  |
| SRP2194-A06 (antibody, IgG1, V domains shown, His/FLAG-tagged IgG1, cell-free) VH: EVQLVESGGGLVQPGGSLRLSCAASGFNITDYYIHWVRQAPGKGLEWVGYISPLAGNTYHADSVKGRFPISADTSKNTAYLQMNSLRAEDTAVYYCARDSRRYVRPFDYWGQGTLVTVSS VL: not shown | 9050 MFI | 490 pM | 3750 pM | 0.00193 s⁻¹ | 516000 M⁻¹ s⁻¹ |
| SRP2196-B05 (antibody, V domains shown, His/FLAG-tagged IgG1) VH: EVQLVESGGGLVQPGGSLRLSCAASGFNITGYYIHWVRQAPGKGLEWVGQISPNSGATYHADSVKGRFTISADTSKNTAYLQMNSLRAEDTAVYYCARDSRRYVRGWDYWGQGTLVTVSS VL: QAVVTQESALTTSPGETVTLTCRSSTGAVTTSNYANWVQEKPDHLFTGLIGGTNKRAPGVPARFSGSLIGDKAALTITGAQTEDEAIYFCALWYSNLWVFGGGTKLTVL | 14800 MFI | 200 pM |  |  |  |
| SRP2193-B02 (antibody, IgG1, V domains shown, His/FLAG-tagged IgG1, cell-free; also called Antibody 77) VH: EVQLVESGGGLVQPGGSLRLSCAASGFNIKNSYIHWVRQAPGKGLEWVGTIDPTRGSTVHADSVKGRFTISADTSKNTAYLQMNSLRAEDTAVYYCARSRWFRVLWSYVFDYWGQGTLVTVSS VL: not shown | 15600 MFI | 280 pM | 2350 pM | 0.000511 s⁻¹ | 218000 M⁻¹ s⁻¹ |
| SRP2193-B03 (antibody, IgG1, V domains shown, His/FLAG-tagged IgG1, cell-free; also called Antibody 82) VH: EVQLVESGGGLVQPGGSLRLSCAASGFNIRDYYIHWVRQAPGKGLEWVGAIDPVSGSTLFADSVKGRFTISADTSKNTAYLQMNSLRAEDTEVYYCARSRWFRVLWSYVFDYWGQGTLVTVSS VL: not shown | 15500 MFI | 670 pM | 2960 pM | 0.000505 s⁻¹ | 170000 M⁻¹ s⁻¹ |
| SRP2193-E03 (antibody, IgG1, V domains shown, His/FLAG-tagged IgG1, cell-free; also called Antibody 98) VH: EVQLVESGGGLVQPGGSLRLSCAASGFNITASYIHWVRQAPGKGLEWVGAIDPKGGSTRFADSVKGRFTISADTSKNTAYLQMNSLRAEDTAVYYCARSRWFRVLWSYVFDYWGQGTLVTVSS VL: not shown | 14800 MFI | 190 pM | 1140 pM | 0.000294 s⁻¹ | 259000 M⁻¹ s⁻¹ |
| SRP2193-E11 (antibody, IgG1, V domains shown, His/FLAG-tagged IgG1, cell-free; also called Antibody 79) VH: EVQLVESGGGLVQPGGSLRLSCAASGFNINDYYIHWVRQAPGKGLEWVGGIEPNSGATVFADSVKGRFTIGADTSKNTAYLQMNSLRAEDTAVYYCARSRWYRVLWSYVFHYWGQGTLVTVSS VL: not shown | 25400 MFI | 1330 pM | 1280 pM | 0.000474 s⁻¹ | 370000 M⁻¹ s⁻¹ |
| SRP2193-E08 (antibody, IgG1, V domains shown, His/FLAG-tagged IgG1, cell-free; also called Antibody 87) VH: EVQLVESGGGLVQPGGSLRLSCAASGFNINEYYIHWVRQAPGKGLEWVGAIDPHSGSTNFADSVKGRFTISADTSKNTAYLQMNSLRAEDTAVYYCARSRWYRVLWSYVFDYWGQGTLVTVSS VL: not shown | 15100 MFI | 4280 pM | 3960 pM | 0.000651 s⁻¹ | 164000 M⁻¹ s⁻¹ |
| SRP2193-D10 (antibody, IgG1, V domains shown, His/FLAG-tagged IgG1, cell-free; also called Antibody 92) VH: EVQLVESGGGLVQPGGSLRLSCAASGFNINVSYIHWVRQAPGKGLEWVATIDPNSGFTVHADSVKGRFTISADTSKNTAYLQMNSLRAEDTAVYYCARSRWFRVLWSYVFDYWGQGTLVTVSS VL: not shown | 14800 MFI | 640 pM | 3620 pM | 0.000379 s⁻¹ | 105000 M⁻¹ s⁻¹ |
| SRP2193-B04 (antibody, IgG1, V domains shown, His/FLAG-tagged IgG1, cell-free) VH: EVQLVESGGGLVQPGGSLRLSCAASGFNISNSYIHWVRQAPGKGLEWVGAIEPKNGSTHHADSVKGRFTISADTSKNTAYLQMNSLRAEDTAVYYCARSRWFRVLWTYVFDYWGQGTLVTVSS VL: not shown | 15600 MFI | 400 pM | 778 pM | 0.000134 s⁻¹ | 172000 M⁻¹ s⁻¹ |

Stronger by Kd [1], values ahead:

| Bmax (MFI) [1] | Kd [1] | Kd [2] | koff [2] | kon [2] | Binder |
| --- | --- | --- | --- | --- | --- |
| 9010 MFI | 120 pM | 1070 pM | 0.000325 s⁻¹ | 304000 M⁻¹ s⁻¹ | SRP2194-A01 (antibody, IgG1, V domains shown, His/FLAG-tagged IgG1, cell-free) VH: EVQLVESGGGLVQPGGSLRLSCAASGFNITGYYIHWVRQAPGKGLEWVGYISPLAGNTYHADSVKGRFNISADTSKNTAYLQMNSLRAEDTAVYYCARDSRRYVRPMDYWGQGTLVTVSS VL: not shown |
| 8860 MFI | 140 pM | 3120 pM | 0.000857 s⁻¹ | 274000 M⁻¹ s⁻¹ | SRP2194-B01 (antibody, IgG1, V domains shown, His/FLAG-tagged IgG1, cell-free; also called Antibody 140) VH: EVQLVESGGGLVQPGGSLRLSCAASGFNIASYYIHWVRQAPGKGLEWVGYISPLAGNTYHADSVKGRFTISADTSKNTAYLQMNSLRAEDTAVYYCARDSRRYVRPFDYWGQGTLVTVSS VL: not shown |
| 9480 MFI | 180 pM | 1420 pM | 0.000295 s⁻¹ | 207000 M⁻¹ s⁻¹ | SRP2194-B03 (antibody, IgG1, V domains shown, His/FLAG-tagged IgG1, cell-free) VH: EVQLVESGGGLVQPGGSLRLSCAASGFNITSYYIHWVRQAPGKGLEWVGYISPLAGNTYHADSVKGRFTISADTSKNTAYLQMNSLRAEDTAVYYCARDSRRYVRPFDYWGQGTLVTVSS VL: not shown |
| 9050 MFI | 160 pM | 1840 pM | 0.000364 s⁻¹ | 198000 M⁻¹ s⁻¹ | SRP2194-A04 (antibody, IgG1, V domains shown, His/FLAG-tagged IgG1, cell-free) VH: EVQLVESGGGLVQPGGSLRLSCAASGFNITGYYIHWVRQAPGKGLEWVGYISPLAGNTHHADSVKGRFTISADTSKNTAYLQMNSLRAEDTAVYYCARDSRRYVRPLDYWGQGTLVTVSS VL: not shown |
| 9330 MFI | 150 pM | 2770 pM | 0.00071 s⁻¹ | 256000 M⁻¹ s⁻¹ | SRP2194-B02 (antibody, IgG1, V domains shown, His/FLAG-tagged IgG1, cell-free) VH: EVQLVESGGGLVQPGGSLRLSCAASGFNISGYYIHWVRQTPGKGLEWVGYISPLAGNTYHADSVKGRFTISADTSKNTAYLQMNSLRAEDTAVYYCARDSRRYVRPLDYWGQGTLVTVSS VL: not shown |
| 17000 MFI | 130 pM | 1060 pM | 0.000242 s⁻¹ | 228000 M⁻¹ s⁻¹ | SRP2193-E01 (antibody, IgG1, V domains shown, His/FLAG-tagged IgG1, cell-free; also called Antibody 120) VH: EVQLVESGGGLVQPGGSLRLSCAASGFNIKGKYIHWVRQAPGKGLEWVGAIDPKSGSTAHADSVKGRFTISADTSKNTAYLQMNSLRAEDTAAYYCARSRWFRVLWTYVFDYWGQGTLVTVSS VL: not shown |
| 14900 MFI | 180 pM | 1190 pM | 0.000207 s⁻¹ | 173000 M⁻¹ s⁻¹ | SRP2193-C04 (antibody, IgG1, V domains shown, His/FLAG-tagged IgG1, cell-free; also called Antibody 86) VH: EVQLVESGGGLVQPGGSLRLSCAASGFNINTSYIHWVRQAPGKGLEWVGAIDPKSGSTNFADSVKGRFTISADASKNTAYLQMNSLRAEDTAVYYCARSRWFRVLWSYVLDYWGQGTLVTVSS VL: not shown |
